The supplement of paper PMC10567573

B1: CDC25A (parent)
chain: KKFRTKSRTWAGEKSKREMYSRLK
B2: BTBD10 (parent)
chain: DRKLHSRPRKLYKHSSTSSRIAKG

Variants of: B1
Test: protein stability index of a GFP-peptide fusion (GPS, HEK-293T) (PSI 1-6); higher = more stable
Conditions: c terminus: a fixed tail appended
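Note: lentivirally expressed fusions sorted by FACS into six bins by GFP to DsRed ratio, PSI derived from sequencing read proportions per bin multiplied by bin number.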

Protein stability index: each site, then its substitutions
E13: F 2.19, G 3.29, H 3.1, I 3.07, K 3.49, L 4.12, N 2.79, P 3.27, Q 3.34, R 3.63, S 2.97, T 3.43, W 3.5, Y 3.25
K14: A 2.82, C 2.54, F 2.44, G 4.36, H 2.82, I 2.71, L 2.51, M 3.07, N 4.05, P 3.36, Q 3.09, R 2.61, S 2.44, T 3.1, V 2.41, W 1.6, Y 2.25
S15: A 3.72, C 3.4, D 3.3, F 3.34, G 2.52, H 3.12, I 2.45, K 3.14, L 2.58, M 3.2, N 2.52, Q 2.38, R 2.73, T 3.88, V 2.52, W 1.3, Y 1.94
K16: A 2.62, D 3.24, G 2.79, H 3.56, I 2.28, L 3.16, M 3.99, N 3, P 3.11, Q 3.71, R 1.22, S 3.04, V 2.78, W 2.1, Y 2.38
R17: A 2.77, C 3.34, D 3.6, F 2.86, G 2.99, H 3, I 3.25, K 2.21, L 2.84, N 2.24, P 4.04, Q 3.17, S 3.08, T 3.48, V 2.97, Y 3.4
E18: C 3.07, D 3.12, F 2.88, G 2.98, H 2.71, I 3.64, K 1.94, L 2.64, M 2.87, N 3, P 2.17, Q 2.37, S 2.43, T 2.19, W 4.23, Y 1.9
M19: A 3.13, D 4.05, E 3.79, F 3.53, H 3.54, I 2.8, K 4.05, L 2.7, N 4.2, P 3.41, Q 4.14, R 3.44, S 4.21, T 3, W 2.77, Y 3.24
Y20: C 3.97, D 3.35, F 2.88, H 3.01, I 3.13, K 4.45, L 2.33, M 3.29, N 3.02, P 4.12, Q 4.34, S 4.69, T 3.41, V 2.92, W 2.37
S21: A 2.97, C 2.56, D 2.95, E 3.01, F 2.7, G 3.32, H 2.69, I 2.25, K 3.08, L 3.38, M 3.36, N 3.21, P 2.99, Q 2.54, R 2.73, T 2.56, Y 2.01
R22: A 2.19, C 3.17, D 2.49, F 2.99, G 3.92, H 3.02, I 2.01, K 2.92, L 2.82, M 3.13, N 3.81, P 2.33, Q 2.83, S 2.79, T 3.41, V 3.24, W 2.28, Y 2.03
L23: A 3.49, C 2.87, H 3.39, I 3.33, K 3.84, M 2.73, N 4.01, P 3.94, Q 3.74, R 4.46, S 3.92, T 3.61, V 3.65, W 2.41, Y 2.57
K24: A 2.37, C 2.08, D 3.13, E 3.27, F 2.06, G 2.52, H 2.62, I 2.32, L 2.31, M 2.37, N 3.32, P 3.49, Q 2.58, R 2.91, S 3.16, T 2.94, Y 1.37

Variants of: B2
Test: as above
Conditions: c terminus: a fixed tail appended

Protein stability index of substitutions, site by site:
D1: A 3.27, C 3.94, E 3.89, F 2.9, G 3.47, H 3.42, I 2.54, K 3.2, L 3.2, M 3.8, N 4, P 3.42, Q 3.81, R 3.05, S 3.89, T 3.16, V 3.93, W 2.8, Y 3.03
R2: A 3.42, C 3.62, D 4.04, E 4.39, F 2.65, G 3.95, H 4.46, I 2.66, K 3.83, L 2.7, M 3.89, N 3.96, P 4.02, Q 4.19, S 4.14, T 4.09, V 3.65, W 3.68, Y 3.16
K3: A 4.52, C 3.95, D 4.42, E 4.03, F 3.24, H 4.41, I 3.47, L 3.77, M 3.56, N 3.55, P 3.92, Q 3.87, R 3.63, S 3.57, T 3.83, V 3.92, W 3.64, Y 3.37
L4: A 4.42, C 3.9, D 4.49, E 4.28, F 3.92, G 3.72, H 4.09, I 3.62, K 4.28, M 4.23, N 3.77, P 4.11, Q 4.08, R 3.9, S 4.71, T 4.3, V 3.71, W 3.5, Y 3.8
H5: A 4.22, C 3.9, D 3.99, E 4.09, F 4.43, G 2.82, I 3.74, K 4.09, L 3.72, M 3.43, N 5.44, P 4.5, Q 3.69, R 3.9, S 4.34, T 4.17, V 3.02, W 3.16, Y 3.02
S6: A 3.67, C 3.43, D 4.69, E 4.41, F 3.18, G 3.48, H 3.68, I 3.58, K 3.55, L 2.4, M 3.46, N 4.04, P 4.42, Q 3.89, R 3.39, T 3.76, V 3.91, W 2.92, Y 3.78
R7: A 3.98, C 3.76, D 4.54, E 4.41, F 2.59, G 4.33, H 3.79, I 3.31, K 3.33, L 2.84, M 3.84, N 4.1, P 4.33, Q 4.4, S 4.21, T 4.31, V 3.28, W 2.97, Y 3.83
P8: A 4.2, C 4.03, D 4.51, E 4.08, F 2.21, G 3.68, H 4.12, I 3.65, K 3.67
